By Kd is commonly meant the equilibrium constant for the complex coming apart. A word on the EC50: it is the midpoint of the concentration-response curve.

This note sets out measurements from PMC12288907 (2025).

The target of assay [1] is T1, recombinant soluble trimeric H7 HA of A/Shanghai/02/2013 H7N9 (SH13 H7) (Influenza A virus A/Shanghai/02/2013 …). The assay is described as follows: BLI.
The target of assay [2] is A/Shanghai/02/2013 H7N9 (SH13) hemagglutinin HA1, monomeric (Influenza A virus A/Shanghai/02/2013 …, UniProt R4NN21 1-320, biotin (EZ-Link NHS-PEG4-Biotin, antigen:biotin 1:1) in the BLI only). The assay is described as follows: BLI. For orientation: In BLI a coated tip is dipped into the sample, and binding shifts an interference pattern.
In assay [3] the target is T1, recombinant soluble trimeric H7 HA of …. Kind of assay: ELISA.

B1: recombinant H7-235 IgG1 (rH7-235 IgG1) (antibody, V domains shown)
VH: QVQLVESGGGVVQPGESLRLSCAASGFAFRTYGMHWVRQAPGKGLEWVGVIWYDGSNKYYGDSVKGRFTISRDNSQNTLYLQMNSLRAEDTAVYYCARNGERWRVEDYYYGMDVWGQGTLVTVSS
VL: EIVMTQSPLSLPVTPGEPASISCRSSQSLLHSNAHNYLDWYLQKPGQSPQLLIYLGSNRASGVPDRFSGSGSGTDFTLKISRVEAEDVGIYYCMQALQTPITFGQGTRLEIK
Take B1: the Kd in assay [1] and in assay [2] was less than 20 pM each time. The 50% effective concentration (EC50) in assay [3] was determined as 30 pM.

B2: recombinant H7-235 fragment antigen-binding region (rH7-235 Fab) (Fab, V domains shown)
VH: B1 VH
VL: B1 VL
Consider B2, for which the dissociation constant Kd in assay [1] is 2120 pM. Also, the concentration for a half-maximal effect (EC50) in assay [3] worked out at 160 pM.
